3 substances from article PMC10362042 can be followed below.

“And” between values parts separate entries of the source, which are not always exact repeats. Identical values can stand only once. Like-named read-outs stand apart in the source and are kept apart here.

Some targets named below: Goat ACE2 (goat); Sheep ACE2 (sheep); Rabbit ACE2 (rabbit); Dog ACE2 (dog).
Common to all, as to experiment: SPR
Background: In SPR one partner is held on a chip, and binding of the other changes the refractive index at the surface.

Assay [1] deals with Pig ACE2 (pig).
Assay [2] deals with Pig ACE2 (pig). This is another data set of the same source.

As a reminder, the Kd is the free concentration of one partner at which half of the binding sites on the other are occupied at equilibrium, for simple one-to-one binding. A lower Kd goes with tighter binding.

On to “SARS-CoV-2 Omicron BA.1 RBD (residues 319-541) (from UniProt P0DTC2 319-541) (domain or fragment)”, for which the dissociation constant (Kd) with Goat ACE2 (goat) is 174 nM and 180 nM (2×) and 188 nM; with Sheep ACE2 (sheep), 62 nM and 66.8 nM and 71.5 nM; in the assay with Rabbit ACE2 (rabbit) it was 60 nM and 43.7 nM.

Regarding “SARS-CoV-2 Omicron BA.2 RBD (residues 319-541) (from UniProt P0DTC2 319-541) (domain or fragment)”, the Kd was 654 nM and 662 nM with Pig ACE2 (pig) [1]; 111 nM and 102 nM and 106 nM (2×) with Goat ACE2 (goat); 719 nM and 678 nM with Pig ACE2 (pig) [2]; 76.3 nM and 53.8 nM and 59.3 nM with Rabbit ACE2 (rabbit).

Regarding “SARS-CoV-2 Omicron BA.4/5 RBD (residues 319-541) (from UniProt P0DTC2 319-541) (domain or fragment)”, the Kd is 6.1 nM and 7.2 nM and 8 nM with Pig ACE2 (pig) [1]; 29.1 nM and 26.2 nM and 25.3 nM in the assay with Goat ACE2 (goat); 211 nM and 146 nM and 186 nM with Dog ACE2 (dog).
